5 molecules from publication PMC8252264, “Candida albicans and Candida glabrata triosephosphate isomerase – a moonlighting protein that can be exposed on the candidal cell surface and bind to human extracellular matrix proteins” (BMC Microbiology, 2021) can be followed below.

Assay [1] deals with Candida albicans triosephosphate isomerase (Tpi1) (Candida albicans (strain ATCC 10231)) (UniProt Q9P940). Nature of the assay: SPR; Biacore 3000, Tpi1 amine-coupled to a CM5 chip (ca. 150 RU), human ECM proteins 50-750 nM injected; 10 mM HEPES, 150 mM NaCl, 0.005 % P20, pH 7.4; 1:1 Langmuir model, global or local fit.
Assay [2] has as its target Candida glabrata triosephosphate isomerase (Tpi1) (Candida glabrata (strain CBS138, ATCC 2001)) (UniProt Q6FRI3). Described as above.
Assay [3] concerns the target T1, human vitronectin (human, UniProt P04004 20-478, biotin (NHS-biotin) in the whole-cell assay only; sulfo-SDAD on amino groups in the cross-linking experiment).
T1 construct: vitronectin, human; UniProt ID printed for the modelling only (there: vitronectin V65 subunit); No catalogue number printed; also called VTR; source: bought: R&D Systems
Described as above. Particulars: both partners purified.

Assay [4] concerns the target T2, human elastin (human, UniProt P15502 27-786).
T2 construct: elastin, human; No catalogue number printed; a commercial soluble elastin may be a cross-linked or hydrolysed tissue preparation; source: bought: Sigma-Aldrich
T2 sequence (looked up): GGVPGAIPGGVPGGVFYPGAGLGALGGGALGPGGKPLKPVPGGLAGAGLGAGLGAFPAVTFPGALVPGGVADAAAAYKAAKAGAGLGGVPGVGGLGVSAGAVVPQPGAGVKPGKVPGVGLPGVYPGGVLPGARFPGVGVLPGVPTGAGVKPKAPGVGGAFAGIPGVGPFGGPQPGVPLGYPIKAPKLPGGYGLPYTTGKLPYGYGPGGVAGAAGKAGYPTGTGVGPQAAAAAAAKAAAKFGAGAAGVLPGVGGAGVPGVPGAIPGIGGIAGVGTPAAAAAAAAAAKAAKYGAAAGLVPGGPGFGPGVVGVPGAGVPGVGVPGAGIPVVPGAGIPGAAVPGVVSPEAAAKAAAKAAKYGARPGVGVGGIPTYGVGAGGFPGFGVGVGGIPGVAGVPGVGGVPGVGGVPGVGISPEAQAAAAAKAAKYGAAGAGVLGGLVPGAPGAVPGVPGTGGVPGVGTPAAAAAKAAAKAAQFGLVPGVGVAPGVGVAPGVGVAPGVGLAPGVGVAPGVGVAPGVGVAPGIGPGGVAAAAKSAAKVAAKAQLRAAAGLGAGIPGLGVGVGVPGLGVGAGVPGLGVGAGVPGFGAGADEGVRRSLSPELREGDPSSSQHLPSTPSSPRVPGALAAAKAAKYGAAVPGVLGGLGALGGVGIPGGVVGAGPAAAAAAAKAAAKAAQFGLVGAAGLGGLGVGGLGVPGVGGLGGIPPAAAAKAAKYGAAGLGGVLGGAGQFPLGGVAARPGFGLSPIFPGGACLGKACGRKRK
The description is as above. The settings on record: both partners purified.

In assay [5] the target is human ECM proteins tested in the microplate-based protein-binding assay (Fig. 5). In words: ELISA; microplate-based protein-binding assay: human ECM proteins coated (3 pmoles per well, MaxiSorp, overnight 4 °C), biotin-labelled Tpi1 10-800 nM in PBS, 1.5 h at 37 °C, SA-HRP/TMB detection; apparent KD.
Assay [6] addresses human collagen (human). Described as above.
The target in assay [7] is T1, human vitronectin. The description is as above. The settings on record: both partners purified.

T1 sequence (P04004 20-478): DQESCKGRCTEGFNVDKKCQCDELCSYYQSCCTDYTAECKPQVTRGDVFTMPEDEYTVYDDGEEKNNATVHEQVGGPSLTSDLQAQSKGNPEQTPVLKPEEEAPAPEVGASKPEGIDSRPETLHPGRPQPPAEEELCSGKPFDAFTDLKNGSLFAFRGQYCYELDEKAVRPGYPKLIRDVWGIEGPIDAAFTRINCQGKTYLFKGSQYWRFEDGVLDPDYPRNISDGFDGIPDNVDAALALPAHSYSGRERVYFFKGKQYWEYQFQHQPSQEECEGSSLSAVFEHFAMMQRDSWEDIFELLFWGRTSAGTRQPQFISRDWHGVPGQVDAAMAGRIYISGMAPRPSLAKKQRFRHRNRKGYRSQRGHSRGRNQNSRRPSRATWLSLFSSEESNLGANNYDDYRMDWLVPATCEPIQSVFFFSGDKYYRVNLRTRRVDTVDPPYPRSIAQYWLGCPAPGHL

In assay [1], “human fibronectin (from UniProt P02751 32-2477) (natural protein)” came in with a Kd of 326 nM, a koff of 0.0105 s⁻¹ and a kon of 32200 M⁻¹ s⁻¹. In assay [2], this molecule gave a Kd of 730 nM, a koff of 0.0473 s⁻¹ and an association rate constant (kon) of 64800 M⁻¹ s⁻¹.

In assay [1], human collagen (natural protein) yielded a Kd of 109 nM, a koff of 0.00199 s⁻¹ and a kon of 18200 M⁻¹ s⁻¹. In addition, in assay [2], the Kd came to 214 nM, the koff came to 0.00308 s⁻¹ and the on-rate constant (kon) worked out at 14400 M⁻¹ s⁻¹.

In assay [1], human laminin (complex) gave a Kd of 739 nM, a koff of 0.0327 s⁻¹ and a kon of 44200 M⁻¹ s⁻¹. For the same molecule, in assay [2], the Kd is 253 nM, the koff worked out at 0.00339 s⁻¹ and the kon amounted to 13400 M⁻¹ s⁻¹.

B1: Candida glabrata triosephosphate isomerase (Tpi1) (enzyme)
chain: MARTFFVGGNFKLNGTKKSIKEIVDRLNTASLPENVEVVICPPATYLDYTVSLVSKKQVTVGGQNTYTKASGAYTGENSVDQLKDVGAKWVILGHSERRTYFHEDDKIVAEKTKFALDQGLGVILCIGETLEEKKAGVTLKVVERQLDAVIAEVKDWTNVVIAYEPVWAIGTGLAATAEDAQDIHHSIRSYLAEKLGKDTAEKTRILYGGSANGANAGTFKDKADVDGFLVGGASLKPEFVDIINSRN
modifications: biotin (NHS-biotin) in the microplate assay; unlabelled in SPR and on cells
notes: triosephosphate isomerase Tpi1 of Candida glabrata, native protein isolated from the cell wall; identifier not given; Native protein, enzymatically active, no attached sugars found; also called C. glabrata Tpi1; source: also endogenous, on live C. glabrata cells
As to B1, the Kd in assay [3] was determined as 168 nM; in assay [4], 20.1 nM; in assay [5], 100 nM; in assay [6], 1000 nM. Moreover, the results for the off-rate constant (koff) in assay [3] and in assay [4] were 0.0031 s⁻¹ and 0.00191 s⁻¹, respectively. Also, the results for the kon in assay [3] and in assay [4] were 18400 M⁻¹ s⁻¹ and 95100 M⁻¹ s⁻¹, respectively.

B2: Candida albicans triosephosphate isomerase (Tpi1) (enzyme)
chain: MARQFFVGGNFKANGTKQQITSIIDNLNKADLPKDVEVVICPPALYLGLAVEQNKQPTVAIGAQNVFDKSCGAFTGETCASQILDVGASWTLTGHSERRTIIKESDEFIAEKTKFALDTGVKVILCIGETLEERKGGVTLDVCARQLDAVSKIVSDWSNIVVAYEPVWAIGTGLAATPEDAEETHKGIRAHLAKSIGAEQAEKTRILYGGSVNGKNAKDFKDKANVDGFLVGGASLKPEFVDIIKSRL
modifications: biotin (NHS-biotin) in the microplate assays; unlabelled in SPR, cross-linking and on cells
notes: triosephosphate isomerase Tpi1 of Candida albicans, native protein isolated from the cell wall; the UniProt ID is printed for the molecular modelling; Native protein, enzymatically active, no attached sugars found; The strain used (ATCC 10231) may differ from the strain of the UniProt entry; Modelled as a dimer, oligomeric state not measured here; also called C. albicans Tpi1; source: also …
In assay [3], B2 registered a Kd of 86 nM, an off-rate constant (koff) of 0.00877 s⁻¹ and an on-rate (kon) of 102000 M⁻¹ s⁻¹. In assay [4], this molecule registered a Kd of 821 nM, an off-rate (koff) of 0.0382 s⁻¹ and a kon of 46500 M⁻¹ s⁻¹. For the same molecule, the Kd in assay [7] was around 10 nM.
